Assay results as given in article PMC12669672, “Structural insights into selective and dual antagonism of EP2 and EP4 prostaglandin receptors” (The EMBO Journal, 2025).
Values joined by “and” are separate entries in the source; they are usually repeats but may differ in a detail not shown here. Equal values may be shown once.

Legend:
[1] = test system: WT and mutant EP2 receptors; test: Cell-surface expression, FACS with anti-FLAG FITC antibody; set-up: species or system human; conditions: single experiments 1st-3rd
Experimental: Cell-surface expression levels of both wild-type and mutant receptors were assessed using a fluorescence-activated cell sorting (FACS) assay. Briefly described, AD293 cells expressing FLAG-tagged EP2 or EP4 receptors were collected 24 h post-transfection. These cells were then incubated with a mouse anti-FLAG FITC-conjugated antibody (Sigma) at a 1:200 dilution for 2 h at 4 °C in a dark environment. Subsequently, cells were washed with 100 µL of PBS. Surface expression levels were quantified by measuring the fluorescence intensity of FITC using a Guava® easyCyte flow cytometer. Data were normalized relative to the expression levels of the wild-type receptors. These experiments were conducted in triplicate, and the results were expressed as mean ± S.E.M.

EP2 WT = EP2 WT (Homo sapiens, UniProt P43116); test: GloSensor cAMP assay, PGE2 induced cAMP signaling (activation); type: cell-based; set-up: The full-length EP2 or EP4 was cloned into the pcDNA3.1 vector (Invitrogen), incorporating an N-terminal FLAG tag; expressed in transfected cells; host or cells: AD293
EP2 WT, sequence (P43116 whole entry): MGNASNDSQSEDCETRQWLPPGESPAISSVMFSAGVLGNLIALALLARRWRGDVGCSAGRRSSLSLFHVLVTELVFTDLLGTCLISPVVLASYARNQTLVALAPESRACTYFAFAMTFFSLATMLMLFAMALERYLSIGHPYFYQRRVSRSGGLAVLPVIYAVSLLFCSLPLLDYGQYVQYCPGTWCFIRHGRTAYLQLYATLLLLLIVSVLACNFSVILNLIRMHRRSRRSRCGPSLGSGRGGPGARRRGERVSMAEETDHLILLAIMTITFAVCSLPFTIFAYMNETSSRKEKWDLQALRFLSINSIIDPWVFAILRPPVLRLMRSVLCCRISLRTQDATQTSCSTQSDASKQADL
Experimental: (§1) The full-length EP2 or EP4 was cloned into the pcDNA3.1 vector (Invitrogen), incorporating an N-terminal FLAG tag. AD293 cells were seeded in six-well plates containing DMEM supplemented with 10% dialyzed FBS 1 day prior to transfection. Following overnight growth, cells were transfected with a 1:1 ratio of receptor construct and GloSensor22F cAMP biosensor (Promega) plasmids.
(§2) Twenty-four hours post-transfection, the cells were transferred to CO2-independent media containing 2% GloSensor cAMP Reagent (Promega) and distributed into 384-well assay plates at a density of 4000 cells per well in 10 μL. […] The plates were then incubated at 37 °C for an additional hour before luminescence measurements were taken using an EnVision plate reader.
(§3) Data analysis was performed using GraphPad Prism software v8.0.1. A nonlinear regression analysis, employing a sigmoidal dose–response model, was conducted to determine the Emax values and half-maximum inhibitory concentrations (IC50) for each compound tested.

EP2-D311A = biological target: T1, EP2-D311A (Homo sapiens, UniProt P43116, D311A); test: as above; type: cell-based
T1 construct: The full-length EP2 or EP4 was cloned into the pcDNA3.1 vector (Invitrogen), incorporating an N-terminal FLAG tag; expressed in transfected cells; host or cells: AD293
T1 sequence (P43116 whole entry D311A): as the sequence (P43116 whole entry) above, with D311A counted along it
Experimental: as §1, §2, §3

EP2-F273A = biological target: T2, EP2-F273A (Homo sapiens, UniProt P43116, F273A); test: as above; type: cell-based
T2 construct: The full-length EP2 or EP4 was cloned into the pcDNA3.1 vector (Invitrogen), incorporating an N-terminal FLAG tag; expressed in transfected cells; host or cells: AD293
T2 sequence (P43116 whole entry F273A): as the sequence (P43116 whole entry) above, with F273A counted along it
Experimental: as §1, §2, §3

[2] = single experiments 1st-3rd, Appendix Fig. S6A
[3] = 1 h, PGE2 log([M]) -7, single experiments 1st-3rd, Fig. 2D, read-out: % cAMP activity (normalized to WT)

Compound | Surface expression ( 100% WT) [1] | further results
EP2 S305A | 98.88% and 97.38% and 93.83% | –
EP2 E23A | 92.71% and 100.19% and 95.51% | –
EP2 S308A | 115.51% and 112.90% and 88.41% | –
EP2 T82A | 106.36% and 116.26% and 103.74% | –
EP2 WT | 104.67% and 99.81% and 95.51% | –
EP2 S86A | 89.91% and 90.65% and 110.47% | –
EP2 M116A | 99.63% and 105.23% and 100.56% | –
EP2 S28A | 106.92% and 107.85% and 105.61% | –
CCCCC[C@H](O)/C=C/[C@H]1[C@H](O)CC(=O)[C@@H]1C/C=C\CCCC(=O)O [PGE2, Prostaglandin E2] | – | remaining activity at 0.0001 µM (EP2 WT; 1 h, PGE2 log([M]) -10, single experiments 1st-3rd, Fig. 2D, read-out: % cAMP activity (normalized to WT)): 16.5%; Emax (EP2 WT; mean ± S.E.M., n = 3): 100 ± 3.9%; PGE2 cAMP activity (∆pIC50 from EP2 WT) (EP2 WT; [2]): 0.007 and -0.051 and 0.045; remaining activity at 0.1 µM (EP2-D311A; [3]): 91.9%; Emax (EP2-D311A; mean ± S.E.M., n = 3): 92.4 ± 3.9%; PGE2 cAMP activity (∆pIC50 from EP2 WT) (EP2-D311A; [2]): -1.566 and -1.416 and -1.487; remaining activity at 1 µM (EP2-F273A; 1 h, PGE2 log([M]) -6, single experiments 1st-3rd, Fig. 2D, read-out: % cAMP activity (normalized to WT)): 96.2%; remaining activity at 0.1 µM (EP2-F273A; [3]): 32.4%; Emax (EP2-F273A; mean ± S.E.M., n = 3): 117 ± 2.9%
EP2 W186A | 116.07% and 83.36% and 84.86% | –
